Test [1] concerns the target T1, human IL-23R endogenously expressed on DB cells (CRL-2289) (human, UniProt Q5VWK5 24-629).
T1 sequence (looked up): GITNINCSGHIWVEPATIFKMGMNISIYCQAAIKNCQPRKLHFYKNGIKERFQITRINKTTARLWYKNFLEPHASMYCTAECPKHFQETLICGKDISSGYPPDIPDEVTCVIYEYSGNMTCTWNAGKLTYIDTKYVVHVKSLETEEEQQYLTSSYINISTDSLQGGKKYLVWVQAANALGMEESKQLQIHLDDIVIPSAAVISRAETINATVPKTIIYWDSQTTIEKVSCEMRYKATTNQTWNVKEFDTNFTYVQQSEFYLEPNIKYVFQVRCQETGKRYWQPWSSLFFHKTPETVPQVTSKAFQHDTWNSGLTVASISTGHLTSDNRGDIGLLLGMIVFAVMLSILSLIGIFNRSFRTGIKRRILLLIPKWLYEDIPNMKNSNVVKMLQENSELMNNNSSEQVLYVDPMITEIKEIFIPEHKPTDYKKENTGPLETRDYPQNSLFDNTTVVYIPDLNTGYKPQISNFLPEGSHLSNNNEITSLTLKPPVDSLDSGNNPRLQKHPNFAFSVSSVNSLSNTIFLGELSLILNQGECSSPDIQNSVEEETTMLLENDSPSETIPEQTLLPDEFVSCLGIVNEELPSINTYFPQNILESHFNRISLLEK
Nature of the test: cell-based or functional assay.

The target of test [2] is T2, Nluc-IL23R fusion protein (human, UniProt Q5VWK5 22-629).
T2 construct: range 22-629; Stably expressed in HEK293 cells; also called hIL-23R; human IL-23R fused to a Nanoluc luciferase enzyme; not shown: Nanoluc luciferase (Promega N1371 plasmid) at the N-terminus
T2 sequence (looked up): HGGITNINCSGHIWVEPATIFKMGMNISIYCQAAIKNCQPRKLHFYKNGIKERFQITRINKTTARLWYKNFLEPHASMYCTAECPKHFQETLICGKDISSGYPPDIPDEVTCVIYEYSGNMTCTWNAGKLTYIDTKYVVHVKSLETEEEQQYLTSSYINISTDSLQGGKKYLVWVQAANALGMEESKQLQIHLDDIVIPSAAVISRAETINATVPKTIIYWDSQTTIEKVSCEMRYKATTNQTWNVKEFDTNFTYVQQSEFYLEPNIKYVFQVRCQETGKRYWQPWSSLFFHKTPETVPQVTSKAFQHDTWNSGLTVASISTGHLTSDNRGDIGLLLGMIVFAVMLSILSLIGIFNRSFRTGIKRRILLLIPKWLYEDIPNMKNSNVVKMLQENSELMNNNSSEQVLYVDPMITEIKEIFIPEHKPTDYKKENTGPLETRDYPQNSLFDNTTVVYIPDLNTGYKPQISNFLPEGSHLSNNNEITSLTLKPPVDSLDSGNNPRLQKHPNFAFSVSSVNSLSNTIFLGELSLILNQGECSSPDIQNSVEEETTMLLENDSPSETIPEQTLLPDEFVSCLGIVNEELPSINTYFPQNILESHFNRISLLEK
Nature of the test: BRET displacement of TAMRA-labelled peptide, Nluc-IL23R membranes.

The source of these data is patent publication US20250154198A1, “PEPTIDE INHIBITORS OF INTERLEUKIN-23 RECEPTOR” (Zealand Pharma A/S, priority 2021, published 2025).

*1 amine or outer side, *2 acyl side, *3 side chain or, on linkers, in order; H or OH if unused. Bridges are numbered along the chain shown (N, C = ends). Primed or numbered codes have the meaning given here. Where no end group is shown, it is not given here. [ ]: non-standard residue; d: D form. 4‑Aminomethyl‑phenylacetyl = 4-aminomethyl-phenylacetyl unit, its amine closes the lactam, O=C(Cc1ccc(CN[*:1])cc1)[*:2]; 1,3‑dibromopropan‑2‑one(3) = linker giving 1,3-dithio-propan-2-one bridge -SCH2C(=O)CH2S- between Cys; 2Nal = N[C@@H](Cc1ccc2ccccc2c1)C(=O)O; AEF = NCCOc1ccc(C[C@H](N)C(=O)O)cc1; 3Pal = N[C@@H](Cc1cccnc1)C(=O)O; αMeL = CC(C)C[C@](C)(N)C(=O)O; CH2COCH2 = O=C(C[*:1])C[*:2]; 3Amb = NCc1cccc(C(=O)O)c1; Dab = NCC[C@H](N)C(=O)O

B1: Compound 81 (peptide)
peptide: [4‑Aminomethyl‑phenylacetyl]SCWQC[AEF][2Nal][αMeL]ES-NH2
modifications: lactam (positions not given here); linker 3-6 via CH2COCH2; not fully specified (bridges); printed as [4-Aminomethyl-phenylacetyl](1c)*SC(2a)WQC(2a)[Y(2-aminoethoxy)][2-Nal][2-Me-Leu]E(1c)S-[NH2]
As to B1, in test [1], the “IC50 (pSTAT3)” value came to 20.7 nM. Also, the Ki in test [2] was found to be 318 pM.

B2: Compound 80 (peptide)
peptide: [4‑Aminomethyl‑phenylacetyl]SCWQC[AEF][2Nal][αMeL]E[dR]-NH2
modifications: lactam (positions not given here); linker 3-6 via CH2COCH2; not fully specified (bridges); printed as [4-Aminomethyl-phenylacetyl](1c)*SC(2a)WQC(2a)[Y(2-aminoethoxy)][2-Nal][2-Me-Leu]E(1c)[{d}R]-[NH2]
B2: in test [1], the “IC50 (pSTAT3)” value was 10.5 nM. The same molecule gave an inhibition constant Ki in test [2] of 150 pM.

B3: Compound 78 (peptide)
peptide: [3Amb]SCWQC[AEF][2Nal][αMeL]ER[3Pal]-NH2
modifications: lactam (positions not given here); linker 3-6 via CH2COCH2; not fully specified (bridges); printed as [(3-Aminomethyl)benzoyl](1c)*SC(2a)WQC(2a)[Y(2-aminoethoxy)][2-Nal][2-Me-Leu]E(1c)R[3-(3-Pyridyl)-Ala]-[NH2]
As for B3, the “IC50 (pSTAT3)” value in test [1] was 0.132 nM. Moreover, in test [2], the Ki was found to be 20.5 pM.

B4: Compound 52 (peptide)
peptide: [4‑Aminomethyl‑phenylacetyl]SCWQC[AEF][2Nal][αMeL]ER-NH2
modifications: lactam N-10; linker 3-6 via CH2COCH2
SMILES: CC(C)C[C@]1(C)NC(=O)[C@H](Cc2ccc3ccccc3c2)NC(=O)[C@H](Cc2ccc(OCCN)cc2)NC(=O)[C@@H]2CSCC(=O)CSC[C@H](NC(=O)[C@H](CO)NC(=O)Cc3ccc(cc3)CNC(=O)CC[C@@H](C(=O)N[C@@H](CCCNC(=N)N)C(N)=O)NC1=O)C(=O)N[C@@H](Cc1c[nH]c3ccccc13)C(=O)N[C@@H](CCC(N)=O)C(=O)N2
With B4, in test [1], the “IC50 (pSTAT3)” value turned out to be 7.85 nM. This molecule also returned a Ki in test [2] of 47.5 pM.

Consider [3Amb]SCWQC[AEF][2Nal][αMeL]E[dR]-NH2 (lactam N-10; linker 3-6 via CH2COCH2) [Compound 41], for which, in test [1], the “IC50 (pSTAT3)” value was 29.4 nM. This molecule also returned a Ki in test [2] of 2310 pM.

B5: Compound 82 (peptide)
peptide: [4‑Aminomethyl‑phenylacetyl]SCWQC[AEF][2Nal][αMeL]E[Dab]-NH2
modifications: lactam (positions not given here); linker 3-6 via CH2COCH2; not fully specified (bridges); printed as [4-Aminomethyl-phenylacetyl](1c)*SC(2a)WQC(2a)[Y(2-aminoethoxy)][2-Nal][2-Me-Leu]E(1c)[Dab]-[NH2]
B5: the “IC50 (pSTAT3)” value in test [1] came to 11.1 nM. The molecule further had a Ki in test [2] of 66.5 pM.

In the case of [4‑Aminomethyl‑phenylacetyl]SCWQC[AEF][2Nal][αMeL]E[Dab][3Pal]-NH2 (lactam N-10; linker 3-6 via 1,3‑dibromopropan‑2‑one(3)) [Compound 120], the “IC50 (pSTAT3)” value in test [1] worked out at 0.0542 nM. For the same molecule, the Ki in test [2] is 9.38 pM.
